Experimental findings from paper PMC4754747, “A single residue substitution accounts for the significant difference in thermostability between two isoforms of human cytosolic creatine kinase” (Scientific Reports, 2016) are described below.

Usually stoichiometry N stands for a count of units in the complex or per binding partner.

The data set concerns the molecule itself. As to the kind of experiment: SEC; gel filtration on Superdex 200 10/300 GL (AKTA purifier) of thermally inactivated samples; heated at 45 °C (thermal inactivation: 0.2 mg/ml enzyme in 5 mM Tris-HCl, pH 8.0, 10 min); dimer to monomers. On the technique in general: In gel filtration, larger molecules generally elute earlier.

B1: hBBCK P36L mutant (BP36L) (enzyme)
chain: not shown
notes: creatine kinase, brain type (B subunit), human, with P36L; Site-directed mutant of m1; details are in the Supplementary Information
For B1, the “stoichiometry N” value was determined as 2.

B2: human brain-type creatine kinase homodimer (hBBCK) (enzyme)
chain: not shown
notes: creatine kinase, brain type (B subunit), human; wild type; also called WT hBBCK; hBCK
As to B2, the binding result was “binds”.
